target: receptor binding domain (RBD) of SARS-CoV-2 alpha variant (B.1.1.7) (SARS-CoV-2), P0DTC2

Row | Binder | Kd [nM]
1 | EEQAKTFLDKFNHEAEDLFYQSSGLGKGDFR (modifications not checked) [p6 peptide] | 320

target: receptor binding domain (RBD) of SARS-CoV-2 delta variant (B.1.617.2) (SARS-CoV-2), P0DTC2

Row | Binder | Kd [nM]
2 | EEQAKTFLDKFNHEAEDLFYQSSGLGKGDFR (modifications not checked) [p6 peptide] | 190

target: T1, receptor binding domain (RBD) of SARS-CoV-2 wildtype (2019-nCoV) (SARS-CoV-2), P0DTC2

Row | Binder | Kd [nM]
3 | EEQAKTFKDKFDHEAEDKFYQDSGLGKGDFR (modifications not checked) [p6(K)8,18(D)12,22] | 10000

target: T1, receptor binding domain (RBD) of …; remark: another data set of the same source

Row | Binder | Kd [nM]
4 | EEQAKTFLDKCNHECEDLFYQSS (modifications not checked) [p4C11, 15] | 68
5 | EEQAKTCLDKFNHEAEDLFYQSS (modifications not checked) [p4C7] | 1940
6 | EEQCKTFLDKFNHEAEDLFYQSS (modifications not checked) [p4C4] | 1300
7 | EECAKTFLDKFNHEAEDLFYQSS (modifications not checked) [p4C3] | 42
8 | EEQAKTFCDKFNHEAEDLFYQSS (modifications not checked) [p4C8] | 281
9 | EEQCKTFCDKFNHEAEDLFYQSS (modifications not checked) [p4C4, 8] | 59
10 | EEQAKTFLCKFNHEAEDLFYQSS (modifications not checked) [p4C9] | 3230
11 | EEQAKTFLDKFNHECEDLCYQSS (modifications not checked) [p4C15, 19] | 238
12 | EEQAKTFLDKCNHEAEDLFYQSS (modifications not checked) [p4C11] | 12
13 | EEQAKTFCDKFCHEAEDLFYQSS (modifications not checked) [p4C8, 12] | 47
14 | EEQAKTFLDCFNHEAEDLFYQSS (modifications not checked) [p4C10] | 331
15 | EEQCKTFCDKFNHEAEDCFYQCS (modifications not checked) [p4C4, 8, 18, 22] | 400
16 | ECQAKTFLDKFNHEAEDLFYQSS (modifications not checked) [p4C2] | 34
17 | EEQAKTFLDKFCHEAEDLFYQSS (modifications not checked) [p4C12] | 2050
18 | EEQACTFLDKFNHEAEDLFYQSS (modifications not checked) [p4C5] | 2140
19 | EEQAKTFLDKFNCEAEDLFYQSS (modifications not checked) [p4C13] | 28
20 | EEQAKTFLDKFNHEAEDCFYQCS (modifications not checked) [p4C18, 22] | 218

target: T1, receptor binding domain (RBD) of …; remark: another data set of the same source

Row | Binder | Kd [nM]
21 | EEQAKTFLDKFNHEAEDLFYQSCGLGKGDFRC (modifications not checked) [p6-dis] | 2600
22 | EAAAKEEQAKTFLDKFNHEAEDLFYQSSGLGKGDFR (modifications not checked) [p6-rigid] | 4530
23 | EAAAKEEQAKTFLDKFNHEAEDLFYQSCGLGKGDFRC (modifications not checked) [p6-rigid-dis] | 5140
